This note sets out measurements from patent US20190077860A1 (EISAI R AND D MANAGEMENT, published 2019).

Experiment [1] has as its target T1, mouse EphA4 extracellular region-SEAP-His protein (mouse). Briefly: competition ELISA, competitor biotinylated mouse Ephrin B2-Fc. As for the experimental part: Antibody A-Fab and antibody A-F(ab′)₂ obtained in Example 5 were evaluated for their inhibitory activity against the binding between EphA4 and its ligand according to the following steps. Each well of a 96-well plate (Nunc) was coated with an anti-alkaline phosphatase antibody (Thermo Fisher Scientific). After incubation overnight at 4° C., each well was blocked with 1% BlockAce (DS Pharma Biomedical) at room temperature for 1 hour. After washing with 0.05% Tween 20/PBS (Thermo Fisher Scientific) three times, the mouse EphA4 extracellular region-SEAP-His protein obtained by the method of Example 1 was added (final concentration: 10 nM) to each well and incubated at room temperature for 1 hour. After washing three times, a ligand and serially diluted antibody A (0, 0.003, 0.01, 0.03, 0.1, 0.3, 1, 3, 10, 30, 100, 300, 1000, and 3000 nM), antibody A-Fab (0, 0.003, 0.01, 0.03, 0.1, 0.3, 1, 3, 10, 30, 100, 300, 1000, and 3000 nM), antibody A-F(ab′)₂ (0, 0.003, 0.01, 0.03, 0.1, 0.3, 1, 3, 10, 30, 100, 300, 1000, and 3000 nM), or the EphA4 inhibitor KYL peptide ([…], 0, 0.0003, 0.001, 0.003, 0.01, 0.03, 0.1, 0.3, 1, 3, 10, 30, 100, 300, 1000, and 3000 μM, its synthesis was outsourced to Toray Research Center) were added to each well. The ligand used was biotinylated mouse Ephrin B2-Fc chimera (R&D Systems, final concentration: 2.5 nM). After incubation at room temperature for 1 hour and subsequent washing three times, horseradish peroxidase-labeled streptavidin (GE Healthcare) was added thereto and incubated at room temperature for 1 hour. After washing three times, a TMBZ (3,3′,5,5′-tetramethylbenzidine, Sigma-Aldrich) solution was added to each well and incubated at room temperature for 2 minutes. An equal amount of a reaction stopping solution (1N H₂SO₄, Wako Pure Chemical Industries) was added to each well. The absorbance at 450 nm was read using a microplate reader (Molecular Devices or PerkinElmer).
Antibody A and antibody A-F(ab′)₂ had 1000 or more times the activity of the KYL peptide, and antibody A-Fab also had 10 or more times the activity of KYL peptide.
(In general: An ELISA detects its analyte on a solid surface through an enzyme-linked reagent.)

Experiment [2] concerns the target T1, mouse EphA4 extracellular …. The experiment in a line: SPR (Biacore T200), EphA4-SEAP-His captured by anti-His antibody; F(ab')2 (bivalent), not Fab. The protocol:
(§1) Next, the binding affinity of antibody A-Fab and antibody A-F(ab′)₂ for mouse and human EphA4 was determined by surface plasmon resonance (SPR) using Biacore T200 (GE Healthcare). Antibody A obtained in Example 1 was used as a control for the comparison of each fragment. First, an anti-His tag antibody was immobilized on sensor chip CM5. The immobilization of the anti-His tag antibody on sensor chip CM5 was performed by the amine coupling method using N-hydroxysuccinimide (NHS) and N-ethyl-N′-(3-dimethylaminopropyl)carbodiimide hydrochloride (EDC). Ethanolamine was used in blocking (the sensor chip and the reagents for immobilization were all manufactured by GE Healthcare). The antibody was diluted with a buffer solution for immobilization (10 mM sodium acetate, pH 4.5) into 3 μg/mL and immobilized on the sensor chip according to the protocol attached to Biacore T200.
(§2) Mouse or human EphA4 extracellular region-SEAP-His protein was diluted with a running buffer solution HBS-EP (GE Healthcare, BR-1001-88), injected onto a flow cell for 120 seconds, and captured (amount of the protein captured: approximately 10 to 20 RU). Subsequently, antibody A (50, 16.7, 5.6, 1.9, 0.6, and 0 nM), antibody A-Fab (500, 166.7, 55.6, 18.5, 6.2, and 0 nM), or antibody A-F(ab′)₂ (50, 16.7, 5.6, 1.9, 0.6, and 0 nM) serially diluted using HBS-EP was added to the sensor chip for 120 seconds. […]

Experiment [3] has as its target T2, human EphA4 extracellular region-SEAP-His protein (human, UniProt P54764 20-547).
T2 construct: also called hEphA4-SEAP-His
The experiment is described as above. As for the experimental part:
as §1, §2

Experiment [4] deals with T2, human EphA4 extracellular …. The experiment in a line: SPR (Biacore T200), human EphA4 extracellular region-SEAP-His captured on an anti-His antibody CM5 chip, F(ab')2 as analyte at 0.6-50 nM, 1:1 fit. The protocol: as §1, §2
Background: SPR reads the build-up and loss of mass on a sensor chip optically.

For experiment [5], the target named is T1, mouse EphA4 extracellular …. The experiment in a line: SPR (Biacore T200), mouse EphA4 extracellular region-SEAP-His captured on an anti-His antibody CM5 chip, F(ab')2 as analyte at 0.6-50 nM, 1:1 fit. As for the experimental part: as §1, §2

T1 sequence (chain, as listed by the source limits assumed): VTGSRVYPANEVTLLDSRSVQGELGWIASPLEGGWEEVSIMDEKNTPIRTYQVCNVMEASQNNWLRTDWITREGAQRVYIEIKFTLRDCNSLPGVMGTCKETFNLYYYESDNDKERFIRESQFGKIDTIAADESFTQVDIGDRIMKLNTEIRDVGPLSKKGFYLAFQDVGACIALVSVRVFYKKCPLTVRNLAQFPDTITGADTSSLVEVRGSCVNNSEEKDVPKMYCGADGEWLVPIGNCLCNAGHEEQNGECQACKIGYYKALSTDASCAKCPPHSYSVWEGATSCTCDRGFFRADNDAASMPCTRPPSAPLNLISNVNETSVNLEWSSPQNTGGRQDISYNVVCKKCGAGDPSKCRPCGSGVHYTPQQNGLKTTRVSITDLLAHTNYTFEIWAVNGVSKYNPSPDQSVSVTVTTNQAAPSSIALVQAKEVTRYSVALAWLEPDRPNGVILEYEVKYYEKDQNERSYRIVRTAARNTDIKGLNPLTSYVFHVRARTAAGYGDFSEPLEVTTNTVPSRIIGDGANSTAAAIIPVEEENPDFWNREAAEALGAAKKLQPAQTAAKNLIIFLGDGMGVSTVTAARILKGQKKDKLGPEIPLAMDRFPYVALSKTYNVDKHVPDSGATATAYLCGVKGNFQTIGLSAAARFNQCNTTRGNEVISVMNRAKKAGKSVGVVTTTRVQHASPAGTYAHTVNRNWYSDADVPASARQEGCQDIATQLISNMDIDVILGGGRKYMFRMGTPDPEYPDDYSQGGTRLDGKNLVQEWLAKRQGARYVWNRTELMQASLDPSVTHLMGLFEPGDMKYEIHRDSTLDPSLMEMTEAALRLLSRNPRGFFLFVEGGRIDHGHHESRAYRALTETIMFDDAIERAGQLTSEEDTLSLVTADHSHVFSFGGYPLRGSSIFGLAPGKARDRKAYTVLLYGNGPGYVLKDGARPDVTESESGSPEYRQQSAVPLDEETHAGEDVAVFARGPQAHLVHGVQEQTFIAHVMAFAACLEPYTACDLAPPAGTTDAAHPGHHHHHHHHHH
T2 sequence (P54764 20-547): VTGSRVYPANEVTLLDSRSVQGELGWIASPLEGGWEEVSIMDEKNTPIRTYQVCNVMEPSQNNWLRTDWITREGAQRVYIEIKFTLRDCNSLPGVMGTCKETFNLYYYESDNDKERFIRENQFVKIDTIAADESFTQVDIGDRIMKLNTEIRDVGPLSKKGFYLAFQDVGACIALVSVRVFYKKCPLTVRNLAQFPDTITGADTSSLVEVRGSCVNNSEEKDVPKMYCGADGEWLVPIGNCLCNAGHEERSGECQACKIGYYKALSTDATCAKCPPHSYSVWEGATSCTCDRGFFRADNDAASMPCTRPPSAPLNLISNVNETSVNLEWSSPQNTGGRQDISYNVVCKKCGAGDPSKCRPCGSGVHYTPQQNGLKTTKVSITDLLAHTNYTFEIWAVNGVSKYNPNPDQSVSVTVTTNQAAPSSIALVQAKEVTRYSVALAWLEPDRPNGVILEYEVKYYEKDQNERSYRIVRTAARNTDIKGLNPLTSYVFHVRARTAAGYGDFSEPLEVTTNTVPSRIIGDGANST

B1: antibody A-F(ab')2 (other, not shown: a dimerising Fc or GST)
heavy: QIQLVQSGPELKKPGETVKISCKASGYTFTDYSMHWVKQAPGKGLKWMGWINTETGEPTYADDFKGRFAFSLETSASTAYLQINNLKNEDTATYFCARIPLYYYGSRYWYFDVWGAGTTVTVSS
light: DIQMTQSPASLSVSVGETVTITCRASENIYRNLAWYQQKQGKSPQLLVYAATNLADGVPSRFSGSGSGTQYSLKINSLQSEDFGSYYCQHFWGTPWTFGGGTKLEIKRADAAPTVSIFPPSSEQLTSGGASVVCFLNNFYPKDINVKWKIDGSERQNGVLNSWTDQDSKDSTYSMSSTLTLTKDEYERHNSYTCEATHKTSTSPIVKSFNRNEC
notes: made by pepsin digestion of antibody A; also called F(ab')2 fragment of antibody A
Usually IC50 stands for the concentration that inhibits the measured activity by half. High values mean a need for much substance, low ones inhibition by little substance. Usually koff stands for the first-order rate constant of dissociation. Lower therefore signals a long-lived complex. As usually defined, the kon is a measure of how fast the partners come together. Read a high kon as faster complex formation. For the molecule B1, in experiment [1], the IC50 was 2.9 nM and the “fold activity against KYL peptide” value is not below 1000 fold. The Kd in experiment [2] came to 0.0229 nM. The Kd in experiment [3] came to 0.053 nM. In addition, in experiment [4], the koff was 0.0333 s⁻¹ and the kon worked out at 629000 M⁻¹ s⁻¹. In experiment [5], this molecule yielded an off-rate constant (koff) of 0.000205 s⁻¹ and a kon of 8.98e+06 M⁻¹ s⁻¹.
